Source: article PMC4626060 (Molecular Biology of the Cell, 2015)

B1: recombinant His-Cetn3 (natural protein)
chain: MSLALRSELVVDKTKRKKRRELSEEQKQEIKDAFELFDTDKDEAIDYHELKVAMRALGFDVKKADVLKILKDYDREATGKITFEDFNEVVTDWILERDPHEEILKAFKLFDDDDSGKISLRNLRRVARELGENMSDEELRAMIEEFDKDGDGEINQEEFIAIMTGDI
B2: recombinant His-Cetn2 (natural protein)
chain: MASNFKKANMASSSQRKRMSPKPELTEEQKQEIREAFDLFDADGTGTIDVKELKVAMRALGFEPKKEEIKKMISEIDKEGTGKMNFGDFLTVMTQKMSEKDTKEEILKAFKLFDDDETGKISFKNLKRVAKELGENLTDEELQEMIDEADRDGDGEVSEQEFLRIMKKTSLY

Target: T1, full-length glutathione S-transferase (GST)-Mps1 (UniProt P33981 1-857)
T1 sequence: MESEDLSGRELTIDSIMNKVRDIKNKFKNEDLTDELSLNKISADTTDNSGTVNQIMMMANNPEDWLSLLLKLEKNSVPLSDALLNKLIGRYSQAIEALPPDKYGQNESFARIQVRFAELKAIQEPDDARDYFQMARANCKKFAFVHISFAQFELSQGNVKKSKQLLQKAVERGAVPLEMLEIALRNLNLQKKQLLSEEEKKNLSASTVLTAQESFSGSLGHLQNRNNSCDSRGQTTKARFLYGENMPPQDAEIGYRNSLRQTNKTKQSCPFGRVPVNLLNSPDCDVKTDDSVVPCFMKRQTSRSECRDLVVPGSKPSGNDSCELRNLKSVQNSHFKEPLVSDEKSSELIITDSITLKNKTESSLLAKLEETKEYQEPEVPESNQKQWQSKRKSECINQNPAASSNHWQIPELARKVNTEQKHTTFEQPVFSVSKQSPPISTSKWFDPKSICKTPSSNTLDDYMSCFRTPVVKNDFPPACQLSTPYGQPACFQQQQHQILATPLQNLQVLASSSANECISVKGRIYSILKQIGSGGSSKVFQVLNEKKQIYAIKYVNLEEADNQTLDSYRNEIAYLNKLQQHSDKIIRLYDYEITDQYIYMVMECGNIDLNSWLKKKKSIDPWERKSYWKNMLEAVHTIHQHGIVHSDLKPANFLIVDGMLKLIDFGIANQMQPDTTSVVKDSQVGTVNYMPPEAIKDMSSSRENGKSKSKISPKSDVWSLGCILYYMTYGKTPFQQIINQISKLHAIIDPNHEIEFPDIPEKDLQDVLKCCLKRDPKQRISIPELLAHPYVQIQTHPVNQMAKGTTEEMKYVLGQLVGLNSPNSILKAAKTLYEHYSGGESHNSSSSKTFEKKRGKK
Test: pull-down

Row | Binder | fold binding to GST-Mps1 with 5 mM MgCl2 against without | fold binding to GST-Mps1 on coincubation with Cetn3 against Cetn2 alone
1 | B1 | 2.59 ± 0.91 fold | 
2 | B2 |  | 3.39 ± 1.96 fold
